Measured values published in publication PMC3063405.

What was measured:
[1] = molecular target: T1, PUM2-HD (Pumilio-homology domain) (Homo sapiens, UniProt Q8TB72 706-1056); test: EMSA
[2] = molecular target: T2, PUM1-HD (Pumilio-homology domain) (Homo sapiens, UniProt Q14671 828-1176); test: EMSA
[3] = molecular target: T2, PUM1-HD (Pumilio-homology domain); test: crystal structure
[4] = molecular target: T1, PUM2-HD (Pumilio-homology domain); test: crystal structure

T2 sequence (Q14671 828-1176): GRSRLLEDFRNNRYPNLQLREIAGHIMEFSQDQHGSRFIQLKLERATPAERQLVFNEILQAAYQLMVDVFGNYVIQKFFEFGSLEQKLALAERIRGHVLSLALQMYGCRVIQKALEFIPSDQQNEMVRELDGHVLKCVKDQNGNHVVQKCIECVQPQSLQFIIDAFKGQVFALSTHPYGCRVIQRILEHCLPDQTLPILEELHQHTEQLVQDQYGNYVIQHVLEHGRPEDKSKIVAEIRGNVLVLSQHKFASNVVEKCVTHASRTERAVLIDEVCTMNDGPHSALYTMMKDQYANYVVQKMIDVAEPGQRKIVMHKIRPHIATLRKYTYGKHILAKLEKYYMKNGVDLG
T1 sequence (Q8TB72 706-1056): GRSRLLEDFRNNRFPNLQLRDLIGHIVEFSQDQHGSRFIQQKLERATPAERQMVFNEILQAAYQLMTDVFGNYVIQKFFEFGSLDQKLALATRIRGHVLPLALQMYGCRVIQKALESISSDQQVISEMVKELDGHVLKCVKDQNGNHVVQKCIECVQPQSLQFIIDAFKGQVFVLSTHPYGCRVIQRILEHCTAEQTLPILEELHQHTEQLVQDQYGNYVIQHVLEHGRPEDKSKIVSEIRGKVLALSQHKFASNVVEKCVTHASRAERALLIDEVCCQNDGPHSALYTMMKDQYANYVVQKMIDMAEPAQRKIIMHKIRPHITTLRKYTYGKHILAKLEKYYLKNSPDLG

Row | Binder | Kd [1] | Kd [2] | binding result [3] | binding result [4]
1 | UGUAAAUA (ssRNA) [p38α NREa] | 0.17 ± 0.02 nM | 0.91 ± 0.08 nM |  | 
2 | UGUACAUA (ssRNA) [hb NRE2] | 0.07 ± 0.01 nM | 1.01 ± 0.05 nM |  | 
3 | UGUAGAUA (ssRNA) [p38α NREb] | 0.08 ± 0.01 nM | 0.63 ± 0.01 nM |  | 
4 | UGUACAUC (ssRNA) [erk2 NRE] |  |  | binds | binds
5 | UGUAUAUA (ssRNA) [hb NRE1] | 0.36 ± 0.02 nM | 0.4 ± 0.01 nM |  | 
